For one data set, the target named is T1, PrnC (Pseudomonas fluorescens, UniProt P95482).
T1 construct: made in house; host or cells: P. fluorescens (pPEH/prnC/134Δprn), plasmid pPEH-PrnC with tac promoter
T1 sequence (P95482 whole entry, looked up): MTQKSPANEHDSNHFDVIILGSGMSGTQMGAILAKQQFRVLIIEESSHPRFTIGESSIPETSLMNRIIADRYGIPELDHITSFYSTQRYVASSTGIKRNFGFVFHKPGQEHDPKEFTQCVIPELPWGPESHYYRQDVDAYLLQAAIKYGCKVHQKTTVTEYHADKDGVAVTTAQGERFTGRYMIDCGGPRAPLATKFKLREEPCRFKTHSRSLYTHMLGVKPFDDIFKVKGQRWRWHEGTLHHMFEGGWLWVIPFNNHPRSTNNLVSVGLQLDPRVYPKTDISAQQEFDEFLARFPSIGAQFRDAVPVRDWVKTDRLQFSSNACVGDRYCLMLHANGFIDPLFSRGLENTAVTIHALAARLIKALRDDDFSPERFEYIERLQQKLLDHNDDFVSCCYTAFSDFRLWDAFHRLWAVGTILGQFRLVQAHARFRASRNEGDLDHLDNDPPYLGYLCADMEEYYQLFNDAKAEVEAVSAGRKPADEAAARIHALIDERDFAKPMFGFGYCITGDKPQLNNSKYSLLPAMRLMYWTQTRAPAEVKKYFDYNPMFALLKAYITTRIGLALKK
In words: In vitro halogenation with PrnC: chlorination of MDA to APRN (Example 3). To be noted: Extract #2 (PrnC depleted of P2) plus 20 microliter electron transferase, NADH, overnight. In kind it is biochemical, P. fluorescens. How it is done:
Fre, ferrodoxin NADP reductase, ferrodoxin and NADPH FMN-reductase are tested for the ability to activate P. fluorescens PrnC that was depleted of endogenous electron transferase (P2) as described below. PrnC catalyzes chlorination of monodechloroaminopyrrolnitrin (MDA) to yield aminopyrrolnitrin (APRN).
The following materials are prepared for use in assays described below. Buffer 100 mM Tris/Cl, 1 mM EDTA. pH 7.5. Monodechloroaminopyrrolnitrin (MDA) 74.2 mM is prepared by culture of Pseudomonas fluorescens expressing PrnA and PrnB as described in (Kirner et al,1998) which is herein incorporated by reference in its entirety. The assay mix comprises FAD (5 μM) and MDA (742 μM) in buffer. NADH is dissolved in buffer at a concentration of 6 mg/ml. or NADPH is dissolved in buffer at a concentration of 6 mg/ml. Extract #1 is a crude extract in buffer containing PrnC and the endogenous electron transferase P2 described above in example 1. […]
The assays described below are run as follows; Extract #2 is mixed with the indicated electron transferase, assay mix and either NADH or NADPH as indicated. The native activity of PrnC prior to removal of the P2 activity is determined by a parallel sample in which extract #1 is mixed with assay mix and NADH. […] Samples are analyzed by PrnC_Iso method described below. The 220 nm absorbance chromatogram is analyzed and integrated. PrnC activity is expressed as 100 times the ratio of the APRN peak area to the sum of the peak areas of APRN and MDA. Assuming equal extinction coefficients at 220 nm the calculated ratio is equivalent to the net % conversion of MDA to APRN by halogenation.
HPLC Analytical method PrnC_Iso The HPLC instrument used is a Waters Alliance HPLC system with photodiode array detector and is equipped with a 4.6×50 mm column packed with C18-Silica, particle size 3 micrometer. […] Absorbance data are collected from 210 to 400 nm with a resolution of 2.4 nm and a sampling rate of 5/s. […]

Data set [1] concerns the target T2, PrnA (Pseudomonas fluorescens, UniProt P95480). In kind it is biochemical. The note with it: 20 microliter PrnA, 20 microliter electron transferase, 20.5 hours, room temperature, triplicate. The arrangement: made in house; host or cells: Pseudomonas fluorescens BL915deltaORF1-4 with plasmid pPEH14 (prnA).
Description: Protein concentration or the preparation is 0.36 mg/ml.
Either a NADH dependent mixture or a NADPH mixture is used as indicated below. An NADH-dependent assay mixture is prepared by adding 12 mg of NADH to 4.5 ml of above described assay mixture. A NADPH-dependent assay mixture is prepared by adding 3 mg NADPH to 1 ml of the above described assay mixture.
The reactions 1-7, described below, are set up in polypropylene tubes in triplicate. After mixing PrnA, the indicated assay mixture and electron transferase, samples are vortexed, then mixed by inversion at room temperature. […] The HPLC analysis is by Method Set PrnA1 (described below), the injection volume is 50 microliter, and data are collected for the first 6 minutes.
Standards are prepared by mixing 5 or 10 microliter 7-Cl-Trp (1 mM) with sufficient 50 mM HEPES, pH 7.5 to bring the final volume to 200 microliter. D-Trp is eluted at ˜2 min and 7-Cl-trp is eluted at 4.3 min, as indicated by the elution of the authentic D-Trp and 7-Cl-Trp. The quantity of 7-Cl-trp is determined by comparison to a standard curve. Reported activities are the net increase in 7-Cl-Trp after addition of the electron transferase.
A Waters Alliance HPLC system with photodiode array detector is used. The Waters Alliance HPLC is equipped with a 4.6×50 mm column packed with C18-Silica, particle size 3 micrometer. A gradient elution method designated here as PrnA1 is used. Flow rates are 1 ml/min throughout and absorbance data are collected from 210 to 400 nm with a resolution of 1.2 nm and a sampling rate of 1/s. The system as pre-equilibrated with an 85:15 mixture of water:methanol. After injection of the sample the column is developed with a 6 min gradient from the starting conditions to a 40:60 water:methanol mixture. Then from 6.0 to 7.0 min the concentration of methanol is increased to 100% in a linear gradient. The column is washed for 1 min with 100% methanol, then re-equilibrated. D-Trp eluted at ˜2 min and 7-Cl-trp eluted at 4.3 min, as indicated by the elution of authentic D-Trp and 7-Cl-Trp.
Data set [2] has as its target T2, PrnA. In words: Activation of PrnA by electron transferases, 2 h assay (Example 2). In kind it is biochemical. Set-up: made in house; host or cells: Pseudomonas fluorescens BL915deltaORF1-4 with plasmid pPEH14 (prnA). The note with it: 20 microliter PrnA, 50 microliter NADH, 50 microliter electron transferase, room temperature. How it is done:
The following components are used in examples 1-4 below: PrnA (described for Example 1 above) at 0.36 mg/ml, Assay Mixture containing HEPES (100 mM), glucose-6-phosphate, disodium salt (50 mM), D-Trp (5 mM), NaCl (5 mM). Aspergillus niger catalase (39 U/ml), bovine erythrocyte superoxide dismutase (15 U/ml), Leuconostoc mesenteroides glucose-6-phosphate dehydrogenase (10 U/ml). NADH-(3 mg/ml) NADPH (3 mg/ml).
Each assay contains the assay mixture, either NADH (for samples containing Fre and the NAD(P)H:FMN reductase) or NADPH (for samples containing FNR or FNR and Fd), PrnA and the indicated electron transferase. Negative control samples are incubated in parallel; these substituted buffer for PrnA. Quantification standards are prepared by diluting 0,1, 2 or 5 microliter of 7-Cl-Trp standard (1 mM) in 100 microliter Assay Mixture, 50 microliter NADH, 20 microliter PrnA and 50 microliter buffer; the tubes were heated to 100 C. prior to addition of PrnA, then heated an additional 2 min. Further processing is in parallel with the enzymatic reactions. All samples are mixed for 2 h at room temperature. Reactions are stopped and samples processed as described above in Example 1, including using the HPLC Analytical method PrnA1 as described in Example 1.

The source of these data is US20030135880A1, “Compositions and methods for halogenation reactions” (priority 2002, published 2003).

Like-named read-outs stand apart in the source and are kept apart here.

T2 sequence (P95480 whole entry): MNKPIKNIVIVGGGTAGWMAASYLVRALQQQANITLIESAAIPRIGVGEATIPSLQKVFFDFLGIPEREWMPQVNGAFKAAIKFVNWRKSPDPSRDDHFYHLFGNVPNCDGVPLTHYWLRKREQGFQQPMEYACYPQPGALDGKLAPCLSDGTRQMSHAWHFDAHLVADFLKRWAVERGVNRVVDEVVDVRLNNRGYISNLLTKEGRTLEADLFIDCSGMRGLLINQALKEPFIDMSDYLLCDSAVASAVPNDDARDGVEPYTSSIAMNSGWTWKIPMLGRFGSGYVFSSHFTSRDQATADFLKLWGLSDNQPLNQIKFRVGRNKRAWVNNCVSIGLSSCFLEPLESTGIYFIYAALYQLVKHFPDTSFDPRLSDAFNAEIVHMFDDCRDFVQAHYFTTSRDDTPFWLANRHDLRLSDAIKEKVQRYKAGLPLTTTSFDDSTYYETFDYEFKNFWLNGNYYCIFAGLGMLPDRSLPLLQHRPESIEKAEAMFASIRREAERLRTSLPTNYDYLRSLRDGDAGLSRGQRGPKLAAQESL

B1: Fre: E. coli flavin reductase (SEQ ID NO: 19), purified electron transferase (protein, listed as Escherichia coli)
chain: MTTLSCKVTSVEAITDTVYRVRIVPDAAFSFRAGQYLMVVMDERDKRPFSMASTPDEKGFIELHIGASEINLYAKAVMDRILKDHQIVVDIPHGEAWLRDDEERPMILIAGGTGFSYARSILLTALARNPNRDITIYWGGREEQHLYDLCELEALSLKHPGLQVVPVVEQPEAGWRGRTGTVLTAVLQDHGTLAEHDIYIAGRFEMAKIARDLFCSERNAREDRLFGDAFAFI
In the case of B1, the “PrnC activity, conversion of MDA to APRN” value with PrnC was determined as 51.8%. Also, in the data set with PrnA [1] (NADH mixture), the “net product formation 7-Cl-Trp” value was determined as 21.46 ± 1.02 nmol. The “Net 7-Cl-Trp produced” value in the data set with PrnA [2] worked out at 8.44 nmol.

B2: NAD(P)H:FMN reductase: Photobacterium fischeri NAD(P)H:FMN reductase purchased from Roche (protein, listed as Vibrio fischeri)
chain: MPINCKVKSIEPLACNTFRILLHPEQPVAFKAGQYLTVVMGEKDKRPFSIASSPCRHEGEIELHIGAAEHNAYAGEVVESMKSALETGGDILIDAPHGEAWIREDSDRSMLLIAGGTGFSYVRSILDHCISQQIQKPIYLYWGGRDECQLYAKAELESIAQAHSHITFVPVVEKSEGWTGKTGNVLEAVKADFNSLADMDIYIAGRFEMAGAAREQFTTEKQAKKEQLFGDAFAFI
Turning to B2, the “PrnC activity, conversion of MDA to APRN” value in the data set with PrnC is recorded as 4.0%. The “Net 7-Cl-Trp produced” value with PrnA [2] is reported as 0.11 nmol.

B3: FNR: Spinach ferredoxin NADP reductase (protein, UniProt P00455 56-369, looked up)
Ferredoxin--NADP reductase, …: QIASDVEAPPPAPAKVEKHSKKMEEGITVNKFKPKTPYVGRCLLNTKITGDDAPGETWHMVFSHEGEIPYREGQSVGVIPDGEDKNGKPHKLRLYSIASSALGDFGDAKSVSLCVKRLIYTNDAGETIKGVCSNFLCDLKPGAEVKLTGPVGKEMLMPKDPNATIIMLGTGTGIAPFRSFLWKMFFEKHDDYKFNGLAWLFLGVPTSSSLLYKEEFEKMKEKAPDNFRLDFAVSREQTNEKGEKMYIQTRMAQYAVELWEMLKKDNTYFYMCGLKGMEKGIDDIMVSLAAAEGIDWIEYKRQLKKAEQWNVEVY
B3: the “PrnC activity, conversion of MDA to APRN” value in the data set with PrnC is reported as 1.8%. In the data set with PrnA [2], the “Net 7-Cl-Trp produced” value is recorded as 4.22 nmol.

B4: cytochrome b5 reductase: Recombinant soluble domain of rat hepatic cytochrome b5 reductase (protein, listed as Rattus norvegicus)
chain: MGAQLSTLSRVVLSPVWFVYSLFMKLFQRSSPAITLENPDIKYPLRLIDKEIISHDTRRFRFALPSPQHILGLPIGQHIYLSTRIDGNLVIRPYTPVSSDDDKGLVDLVVKVYFKDTHPKFPAGGKMSQYLENMNIGDTIEFRGPNGLLVYQGKGKFAIRADKKSNPVVRTVKSVGMIAGGTGITPMLQVIRAVLKDPNDHTVCYLLFANQSEKDILLRPELEELRNEHSSRFKLWYTVDKAPDAWDYSQGFVNEEMIRDHLPPPGEETLILMCGPPPMIQFACLPNLERVGHPKERCFTF
B4: in the data set with PrnA [1] (NADH mixture), the “net product formation 7-Cl-Trp” value came out at 0.31 ± 0.11 nmol.

B5: NADPH-cyt-P450 reductase: Rabbit liver NADPH-cyt-P450 reductase purchased from Sigma Chemical Co. (protein, listed as Oryctolagus cuniculus)
chain: LINMADSHGDTGATMPEAAAQEASVFSMTDVVLFSLIVGLITYWFLFRKKKEEVPEFTKIQAPTSSSVKESSFVEKMKKTGRNIVVFYGSQTGTAEEFANRLSKDAHRYGMRGMAADPEEYDLADLSSLPEINNALAVFCMATYGEGDPTDNAQDFYDWLQETDVDLSGVKYAVFGLGNKTYEHFNAMGKYVDQRLEQLGAQRIFELGMGDDDANLEEDFITWREQFWPAVCEHFGVEATGEESSIRQYELVLHTDIDVAKVYQGEMGRLKSYENQKPPFDAKNPFLATVTTNRKLNQGTERHLMHLELDISDSKIRYESGDHVAVYPANDSALVNQLGEILGADLDVVMSLNNLDEESNKKHPFPCPTSYRTALTYYLDITNPPRTNVLYELAQYAADPAEQEQLRKMASSSGEGKELYLSWVVEARRHILAILQDYPSLRPPIDHLCELLPRLQARYYSIASSSKVHPNSVHICAVAVEYETKAGRLNKGVATSWLRAKEPAGENGGRALVPMFVRKSQFRLPFKATTPVIMVGPGTGVAPFIGFIQERAWLRQQGKEVGETLLYYGCRRAAEDYLYREELAGFQKDGTLSQLNVAFSREQAQKVYVQHLLRRDKEHLWRLIHEGGAHIYVCGDARNMARDVQNTFYDIVAELGAMEHAQAVDYVKKLMTKGRYSLDVWS
In the case of B5, in the data set with PrnA [1] (NADPH mixture), the “net product formation 7-Cl-Trp” value worked out at 3.35 ± 0.23 nmol.
